The record followed here is PMC12582296.

For assay [1], the target named is adaptor protein 2 (AP-2) complex. Put plainly: ELISA-based peptide binding assay. The following applies: read off a plot. (In general: An ELISA detects its analyte on a solid surface through an enzyme-linked reagent.)
Assay [2] addresses HLA-E (wild type, EGFP at the C-terminus) (human).

On to “CD1b cytoplasmic tail peptide (CD1) (from UniProt P29016) Y5A”, for which, in assay [1] (parent: est. 0.86), the response (absorbance 450) was found to be 0.64.
With “HLA-E cytoplasmic tail peptide (E) (from UniProt P13747) K310R; K322Q; W325S”, in assay [1] (parent: est. 1.5), the response (absorbance 450) stood at 0.83.
Regarding Mtb44 peptide, the percentage of internalized HLA-E that reappeared on the cell surface within 1 h (recycling assay, HEK293T, peptide pulsing 50 µM) in assay [2] is 18%.
On the same count and under the same terms, the figure for RL9 peptide is 15%; for VL9 peptide it is 25%.
